Results reported in PMC8592465.

Tests used:
[1] = target: GfcC (expressed from pMCSG7 without signal sequence, His6-tag removed) (Escherichia coli O127:H6 str. E2348/69) (UniProt P75883); experiment: ITC; 100 μM GfcB injected into 10 μM GfcC, 25°C, 20 mM Tris-HCl pH 7.5, 150 mM NaCl; 1:1 model
[2] = target: GfcD-biotin (from pBH31, His-tag removed, biotinylated) (Escherichia coli O127:H6 str. E2348/69) (UniProt P75882); experiment: BLI; biotinylated GfcD on streptavidin sensor, GfcB, GfcC or GfcBC in solution 3.75-60 μM, 25°C, 20 mM Tris-HCl pH 7.5, 150 mM NaCl, 0.1 mg/mL BSA, 0.02% DDM; 1:1 model
[3] = target: GfcC-biotin (from pMCSG7, His6-tag removed, biotinylated) (Escherichia coli O127:H6 str. E2348/69) (UniProt P75883); experiment: BLI; biotinylated GfcC on streptavidin sensor, GfcB (C-terminal His6, pETBlue2) in solution 0.1-1.6 μM, 25°C, 20 mM Tris-HCl pH 7.5, 150 mM NaCl, 0.1 mg/mL BSA; fit 1:1 and 1:1 with conformational change
[4] = target: GfcD (expressed from pBH31, residues 22-698, His-tag removed by TEV) (Escherichia coli O127:H6 str. E2348/69) (UniProt P75882); experiment: ITC; 160 μM GfcB-GfcC complex injected into 20 μM GfcD, 25°C, 20 mM Tris-HCl pH 7.5, 150 mM NaCl, 0.02% DDM; 1:1 model, n held at 1.0
[5] = target: GfcB-biotin (from pMCSG7, His6-tag removed, biotinylated) (Escherichia coli O127:H6 str. E2348/69) (UniProt P75884); experiment: BLI; biotinylated GfcB on streptavidin sensor, GfcC in solution 0.2-1.6 μM, 25°C, 20 mM Tris-HCl pH 7.5, 150 mM NaCl, 0.1 mg/mL BSA; fit 1:1 and 1:1 with conformational change
[6] = target: His6-GfcB (from pMCSG7, tag kept) (Escherichia coli O127:H6 str. E2348/69) (UniProt P75884); experiment: cross-linking; purified proteins mixed at 5 μM in 20 mM Hepes, 150 mM NaCl, 0.06% DDM pH 7.5, cross-linked with DSP 1 hour at room temperature, SDS-PAGE, blots with anti-polyhistidine and anti-GfcC

Question: How did the Kd [1] turn out when “GfcB (expressed from pMCSG7 without signal sequence, His6-tag removed) (from UniProt P75884 16-214) (natural protein)” was run?
Answer: 99.8 nM

Question: What about the dH [1] of the same substance?
Answer: -6.92 kcal/mol

Question: What about the stoichiometry N [1] of the same substance?
Answer: 1.01

Question: What about the Kd [2] of the same substance?
Answer: 14200 nM

Question: What about the koff [2] of the same substance?
Answer: 0.00926 s⁻¹

Question: And the kon [2]?
Answer: 652 M⁻¹ s⁻¹

Question: Which KD (1:1 with conformational change, binding step) [3] does the source give for “GfcB with C-terminal His6-tag expressed from pETBlue2(gfcB) (from UniProt P75884 16-214) (natural protein)” here?
Answer: 407 nM

Question: And the Kd [3]?
Answer: 175 nM

Question: And the ka1 (1:1 with conformational change, binding step) [3]?
Answer: 80400 M⁻¹ s⁻¹

Question: What about the kd1 (1:1 with conformational change, binding step) [3] of the same substance?
Answer: 0.0328 s⁻¹

Question: And the kd2 (1:1 with conformational change, conformational step) [3]?
Answer: 0.0107 s⁻¹

Question: And the koff [3]?
Answer: 0.0126 s⁻¹

Question: And the kon [3]?
Answer: 71700 M⁻¹ s⁻¹

Question: Which Kd [4] does the source give for “GfcB-GfcC heterodimer (from UniProt P75884 16-214; P75883 23-248) (complex)” here?
Answer: 28400 nM

Question: What about the dH [4] of the same substance?
Answer: -7.24 kcal/mol

Question: What about the Kd [2] of the same substance?
Answer: 9160 nM

Question: And the koff [2]?
Answer: 0.00716 s⁻¹

Question: What about the kon [2] of the same substance?
Answer: 781 M⁻¹ s⁻¹

Question: For “GfcC (expressed from pMCSG7 without signal sequence, His6-tag removed) (from UniProt P75883 23-248) (natural protein)”, which Kd [2] is on record?
Answer: 257000 nM

Question: What about the koff [2] of the same substance?
Answer: 0.0286 s⁻¹

Question: What about the kon [2] of the same substance?
Answer: 111 M⁻¹ s⁻¹

Question: What about the KD (1:1 with conformational change, binding step) [5] of the same substance?
Answer: 1010 nM

Question: What about the Kd [5] of the same substance?
Answer: 374 nM

Question: What about the ka1 (1:1 with conformational change, binding step) [5] of the same substance?
Answer: 59900 M⁻¹ s⁻¹

Question: What about the kd1 (1:1 with conformational change, binding step) [5] of the same substance?
Answer: 0.0603 s⁻¹

Question: And the kd2 (1:1 with conformational change, conformational step) [5]?
Answer: 0.015 s⁻¹

Question: What about the koff [5] of the same substance?
Answer: 0.0196 s⁻¹

Question: And the kon [5]?
Answer: 52300 M⁻¹ s⁻¹

Question: “His6-GfcB (from pMCSG7, tag kept) (from UniProt P75884 16-214) (natural protein)” was tested. Which stoichiometry N [6] did it give?
Answer: 2
